Reference: US20140242694A1

Target: CD150 (signaling lymphocyte activation molecule, SLAM) on EBV-infected human B cells, Raji cells or IM-9 cells (human) (UniProt Q13291)
Assay: cell-based or functional assay

Sequence of UniProt Q13291 (Q13291 21-335): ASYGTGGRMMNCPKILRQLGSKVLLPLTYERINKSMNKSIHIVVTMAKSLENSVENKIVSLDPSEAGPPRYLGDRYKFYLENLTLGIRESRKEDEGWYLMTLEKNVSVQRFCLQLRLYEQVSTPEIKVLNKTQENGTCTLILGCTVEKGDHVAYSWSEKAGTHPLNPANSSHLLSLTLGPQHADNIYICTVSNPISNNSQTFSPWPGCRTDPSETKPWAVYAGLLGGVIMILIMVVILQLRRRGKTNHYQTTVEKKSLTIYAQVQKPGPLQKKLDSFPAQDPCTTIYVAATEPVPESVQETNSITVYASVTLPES

IL-1A production, mRNA level (real-time RT-PCR): 55 fold
IL-1A production, protein level (ELISA): 23 fold
Substance: anti-CD150 mAb (clone IPO-3, Affinity Bioreagents) (antibody)
